This is an account of results in the supplement of paper PMC11246515.

± gives the standard deviation of the averaged measurements. Bounds are passed on as bounds.

The series in a line: total protein half-life in vivo (active degradation + dilution); higher = more stable protein.
The mark [1] stands for this setting: E. coli NCM3722 delta-clpP delta-lon delta-hslV, growth: N-lim chemostat, doubling time 6 h.
The mark [2] stands for this setting: E. coli NCM3722 delta-clpP, growth: N-lim chemostat, doubling time 6 h.
Setting [3] is: E. coli NCM3722 delta-hslV, growth: N-lim chemostat, doubling time 6 h.
Setting [4] is: E. coli NCM3722 delta-lon, growth: N-lim chemostat, doubling time 6 h.
The mark [5] stands for this setting: E. coli NCM3722 delta-smpB, growth: N-lim chemostat, doubling time 6 h.
[6] abbreviates: wild type E. coli NCM3722, growth: C-lim chemostat, doubling time 3 h.
[7] abbreviates: wild type E. coli NCM3722, growth: C-lim chemostat, doubling time 6 h.
Where [8] appears, read: wild type E. coli NCM3722, growth: C-lim chemostat, doubling time 12 h.
Where [9] appears, read: wild type E. coli NCM3722, growth: N-lim chemostat, doubling time 6 h.
Setting [10] is: wild type E. coli NCM3722, growth: N-lim chemostat, doubling time 12 h.
[11] abbreviates: wild type E. coli NCM3722, growth: P-lim chemostat, doubling time 6 h.
The mark [12] stands for this setting: wild type E. coli NCM3722, growth: P-lim chemostat, doubling time 12 h.

As for “MYLRPDEVARVLEKVGFTVDVVTQKAYGYRRGENYVYVNREARMGRTALVIHPTLKERSSTLAEPASDIKTCDHYQQFPLYLAGERHEHYGIPHGFSSRVALERYLNGLFGEAS [P0AD53]”, the “total protein half-life in vivo” value by setting is: under setting [1], 4.77 ± 0.34 h; under setting [2], 1.5 h; under setting [3], 0.818 h; under setting [4], 2.99 ± 0.41 h; under setting [5], 0.698 ± 0.21 h; under setting [6], 1.18 ± 0.14 h. Moreover, the “total protein half-life in vivo” value was 1.81 ± 0.54 h under setting [7]; 1.42 h under setting [8]; 0.609 ± 0.47 h under setting [9]; 1.14 h under setting [10]; 1.03 ± 0.22 h under setting [11]; 2.61 h under setting [12].

Regarding “MKSPAPSRPQKMALIPACIFLCFAALSVQAEETPVTPQPPDILLGPLFNDVQNAKLFPDQKTFADAVPNSDPLMILADYRMQQNQSGFDLRHFVNVNFTLPKEGEKYVPPEGQSLREHIDGLWPVLTRSTENTEKWDSLLPLPEPYVVPGGRFREVYYWDSYFTMLGLAESGHWDKVADMVANFAHEIDTYGHIPNGNRSYYLSRSQPPFFALMVELLAQHEGDAALKQYLPQMQKEYAYWMDGVENLQAGQQEKRVVKLQDGTLLNRYWDDRDTPRPESWVEDIATAKSNPNRPATEIYRDLRSAAASGWDFSSRWMDNPQQLNTLRTTSIVPVDLNSLMFKMEKILARASKAAGDNAMANQYETLANARQKGIEKYLWNDQQGWYADYDLKSHKVRNQLTAAALFPLYVNAAAKDRANKMATATKTHLLQPGGLNTTSVKSGQQWDAPNGWAPLQWVATEGLQNYGQKEVAMDISWHFLTNVQHTYDREKKLVEKYDVSTTGTGGGGGEYPLQDGFGWTNGVTLKMLDLICPKEQPCDNVPATRPTVKSATTQPSTKEAQPTP”, the “total protein half-life in vivo” value by setting is: under setting [1], 6.13 ± 0.28 h; under setting [3], 7.29 ± 0.5 h; under setting [4], 6.16 ± 0.95 h; under setting [5], 5.94 ± 0.87 h; under setting [6], 3.51 ± 0.67 h; under setting [7], 6.59 ± 0.25 h. Further, the “total protein half-life in vivo” value by setting is: under setting [8], 11.2 ± 0.94 h; under setting [9], 6.28 ± 0.098 h; under setting [10], 14.4 ± 0.85 h; under setting [12], 14.4 ± 1.6 h.

As for “MHNQAPIQRRKSTRIYVGNVPIGDGAPIAVQSMTNTRTTDVEATVNQIKALERVGADIVRVSVPTMDAAEAFKLIKQQVNVPLVADIHFDYRIALKVAEYGVDCLRINPGNIGNEERIRMVVDCARDKNIPIRIGVNAGSLEKDLQEKYGEPTPQALLESAMRHVDHLDRLNFDQFKVSVKASDVFLAVESYRLLAKQIDQPLHLGITEAGGARSGAVKSAIGLGLLLSEGIGDTLRVSLAADPVEEIKVGFDILKSLRIRSRGINFIACPTCSRQEFDVIGTVNALEQRLEDIITPMDVSIIGCVVNGPGEALVSTLGVTGGNKKSGLYEDGVRKDRLDNNDMIDQLEARIRAKASQLDEARRIDVQQVEK”, the “total protein half-life in vivo” value reads like this: under setting [1], 4.85 ± 0.2 h; under setting [2], 2.41 ± 0.11 h; under setting [3], 3.23 ± 0.18 h; under setting [4], 3.18 ± 0.078 h; under setting [5], 2.88 ± 0.19 h; under setting [6], 2.61 ± 0.25 h. For the same sequence, the “total protein half-life in vivo” value reads like this: under setting [7], 4.69 ± 0.24 h; under setting [8], 7.78 ± 0.65 h; under setting [9], 3.05 ± 0.092 h; under setting [10], 4.29 ± 0.3 h; under setting [11], 4.01 ± 0.28 h; under setting [12], 7.02 ± 0.51 h.

“MERLLIVNADDFGLSKGQNYGIIEACRNGIVTSTTALVNGQAIDHAVQLSRDEPSLAIGMHFVLTMGKPLTAMPGLTRDGVLGKWIWQLAEEDALPLEEITQELVSQYLRFIELFGRKPTHLDSHHHVHMFPQIFPIVARFAAEQGIALRADRQMAFDLPVNLRTTQGFSSAFYGEEISESLFLQVLDDAGHRGDRSLEVMCHPAFIDNTIRQSAYCFPRLTELDVLTSASLKGAIAQRGYRLGSYRDV”: the “total protein half-life in vivo” value runs as follows: under setting [2], 3.19 ± 0.45 h; under setting [3], 3.38 h; under setting [4], 3.55 ± 0.42 h; under setting [5], 2.945 ± 0.014 h; under setting [6], 2.86 ± 0.21 h; under setting [7], 4.51 ± 0.39 h. Moreover, the “total protein half-life in vivo” value was 7.9 ± 0.51 h under setting [8]; 3.27 ± 0.43 h under setting [9]; 4.74 ± 0.26 h under setting [10]; 5.12 ± 0.14 h under setting [11]; 10.1 ± 0.26 h under setting [12].

As to “MTRIKINARRIFSLLIPFFFFTSVHAEQTAAPAKPVTVEAKNETFAPQHPDQYLSWKATSEQSERVDALAEDPRLVILWAGYPFSRDYNKPRGHAFAVTDVRETLRTGAPKNAEDGPLPMACWSCKSPDVARLIQKDGEDGYFHGKWARGGPEIVNNLGCADCHNTASPEFAKGKPELTLSRPYAARAMEAIGKPFEKAGRFDQQSMVCGQCHVEYYFDGKNKAVKFPWDDGMKVENMEQYYDKIAFSDWTNSLSKTPMLKAQHPEYETWTAGIHGKNNVTCIDCHMPKVQNAEGKLYTDHKIGNPFDNFAQTCANCHTQDKAALQKVVAERKQSINDLKIKVEDQLVHAHFEAKAALDAGATEAEMKPIQDDIRHAQWRWDLAIASHGIHMHAPEEGLRMLGTAMDKAADARTKLARLLATKGITHEIQIPDISTKEKAQQAIGLNMEQIKAEKQDFIKTVIPQWEEQARKNGLLSQ [P0ABK9]”, the “total protein half-life in vivo” value runs as follows: under setting [1], 3.84 h; under setting [2], 5.87 h; under setting [8], over 16 h; under setting [10], 10.5 ± 0.82 h.

For the sequence “MTIRSYKNLNLVRANIETESRQFIENKNYSIQSIGPMPGSRAGLRVVFTRPGVNLATVDIFYNGDGSTTIQYLTGANRSLGQELADHLFETINPAEFEQVNMVLQGFVETSVLPVLELSADESHIEFREHSRNAHTVVWKIISTSYQDELTVSLHITTGKLQIQGRPLSCYRVFTFNLAALLDLQGLEKVLIRQEDGKANIVQQEVARTYLQTVMADAYPHLHVTAEKLLVSGLCVKLAAPDLPDYCMLLYPELRTIEGVLKSKMSGLGMPVQQPAGFGTYFDKPAAHYILKPQFAATLRPEQINIISTAYTFFNVERHSLFHMETVVDASRMISDMARLMGKATRAWGIIKDLYIV”, the “total protein half-life in vivo” value under setting [1] is 5.71 h; the “total protein half-life in vivo” value under setting [3] is 1.859 ± 0.0024 h; the “total protein half-life in vivo” value under setting [4] came to 1.2 h; the “total protein half-life in vivo” value under setting [5] amounted to 0.954 h; the “total protein half-life in vivo” value under setting [6] stood at 1.22 h; the “total protein half-life in vivo” value under setting [8] was found to be 3.37 h. The “total protein half-life in vivo” value under setting [9] came out at 1.41 h, the “total protein half-life in vivo” value under setting [10] was found to be 4.02 ± 2.5 h, the “total protein half-life in vivo” value under setting [11] was 1.17 h and the “total protein half-life in vivo” value under setting [12] was 3.31 ± 1.4 h.
